# Experimental data as given in patent US20240181073A1, “Antibody-Drug Conjugates Comprising an Anti-BCMA Antibody” (Sorrento Therapeutics, Inc., priority 2021, published 2024).
# T1: Human BCMA (B Cell Maturation Antigen) (human, UniProt Q02223 1-184)
# T1 sequence: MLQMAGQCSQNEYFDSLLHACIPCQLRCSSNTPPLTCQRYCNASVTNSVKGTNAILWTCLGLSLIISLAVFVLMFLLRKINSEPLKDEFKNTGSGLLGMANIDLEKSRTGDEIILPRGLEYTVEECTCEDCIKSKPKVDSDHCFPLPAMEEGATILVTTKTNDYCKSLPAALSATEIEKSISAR
# Assays:
# [1] = target: T1, Human BCMA (B Cell Maturation Antigen); assay: cell-based or functional assay
# [2] = target: T1, Human BCMA (B Cell Maturation Antigen); assay: cell-based or functional assay; remark: listed apart in the source
# [3] = target: T1, Human BCMA (B Cell Maturation Antigen); assay: cell-based or functional assay; remark: listed apart in the source
# [4] = test system: NCI-H929 (BCMA+) cells; assay: In vitro cell viability assay (Cell Titer-Glo 2.0), Example B1; type: cell-based, human; settings: 4-day assays, FIG. 2A
# Description: (§1) The in vitro efficacies of ADCs anti-BCMA-Compound 1, anti-BCMA-Compound 2, anti-BCMA-Compound 3, anti-BCMA-Compound 4, anti-BCMA-Compound 5, anti-BCMA-Compound 6, anti-BCMA-Compound 7, and anti-BCMA-Compound 8, were evaluated using the following human cancer cell lines: K562, MM.1R and NCI-H929, purchased from the American Type Culture Collection (ATCC; Manassas, VA). The cells were cultured in RPMI-1640 medium (Gibco ThermoFisher; Waltham, MA) supplemented with 10% heat-inactivated fetal bovine serum (FBS: Corning; Corning, NY, USA) and 1× penicillin-streptomycin (Corning) and maintained at 37° C. in a 5% CO2 humidified environment.
# (§2) The in vitro assays were performed as follows: Tumor cells were harvested by centrifugation at 300 g for 5 minutes and plated into 96-well clear bottom white-walled plates (5,000 to 10,000 cells/well in 50 μL complete medium) and maintained at 37° C. Cells were then treated in duplicate with 50 μL of test articles prepared at 2× final concentration that were serially diluted in complete medium and incubated at 37° C. for up to 120 hrs. After treatment, inhibition of cancer cell growth was determined using the Cell Titer-Glo® 2.0 Cell Viability Assay (Promega; Madison, WI, USA) as described by the manufacturers' protocol. Luminescence was measured using a Perkin-Elmer Envision 2104 Microplate Reader (Waltham, MA).
# (§3) Data were normalized to non-treated controls using Microsoft Excel (Redmond, WA, USA) and analyzed using GraphPad Prism software (version 8; La Jolla, CA, USA). Half-maximal effective concentrations (EC50) were derived from dose response curves were generated using non-linear regression analysis fit to a 4-parameter logistic equation.
# [5] = test system: K562, MM.1R and NCI-H929; assay: In vitro cell viability assay, Example B1, statements over several cell lines; type: cell-based, human; settings: AB1 clone versus AB2 clone ADCs
# Description: as §1
# The in vitro assays were performed as follows: Tumor cells were harvested by centrifugation at 300 g for 5 minutes and plated into 96-well clear bottom white-walled plates (5,000 to 10,000 cells/well in 50 μL complete medium) and maintained at 37° C. […] After treatment, inhibition of cancer cell growth was determined using the Cell Titer-Glo® 2.0 Cell Viability Assay (Promega; Madison, WI, USA) as described by the manufacturers' protocol. Luminescence was measured using a Perkin-Elmer Envision 2104 Microplate Reader (Waltham, MA).
# Data were normalized to non-treated controls using Microsoft Excel (Redmond, WA, USA) and analyzed using GraphPad Prism software (version 8; La Jolla, CA, USA). […]
# [6] = test system: NCI-H929 tumor xenograft; assay: In vivo efficacy, NCI-H929 tumor xenograft in SCID beige mice; design: species or system CB17 SCID beige mice; settings: for tumor growth: i.p.
# Description: (§4) Female CB17 SCID beige mice, 6 weeks of age, were purchased from Charles River Laboratories.
# (§5) Human multiple myeloma tumor cell lines NCI-H929 and OPM2 were cultured and expanded in RPMI 1640 medium supplemented with 10% FBS, 100 units/ml of penicillin and 100 μg/ml of streptomycin at 37° C. in a 5% CO2 humidified environment for a period of 2-3 weeks before harvesting for implantation. Cell viability determined by Trypan blue dye exclusion assay was >90% before implantation. 5 million of OPM2 or NCI-H929 cells in 100 μl of PBS—Matrigel 1:1 (v/v) mixture were inoculated to the right upper flank of each mouse by s.c. injection.
# (§6) Tumor volume measurement was started at day 14 after tumor cell inoculation and performed twice weekly. The longest longitudinal diameter as length and the widest transverse diameter as width were measured by using a digital caliper. Tumor volume (TV) were then calculated by the formula: TV=[length×(width)^2]/2 and were analyzed in Excel.
# (§7) The treatment was started when average tumor size reaches ˜400, 200 and 150 mm^3 for NCI-H929 tumor xenografts in Experiment I, III and IV, respectively, or ˜240 mm^3 for OPM2 tumor xenograft in Experiment I.
# Mice were euthanized when tumor size reached 2000 mm^3.
# After tumor-bearing mice were randomized, anti-BCMA antibody (BCMA-AB1 or BCMA-AB2), anti-BCMA antibody conjugate with Compound 3 (BCMA-AB1-3 or BCMA-AB2-3) or iso-type antibody conjugate with Compound 3 (iso-3) diluted in PBS were administered to mice through i.p. injections. Treatment regimens included 8 mg/kg once, 4 mg/kg Q1W×2 and 2 mg/kg biw×4 of anti-BCMA-AB1 or anti-BCMA-AB1-Compound 3 in Experiment I (FIG. 3); 2 mg/kg biw×4 and 0.67 mg/kg biw×4 of anti-BCMA-AB1 or anti-BCMA-AB1-Compound 3 in Experiment II (FIG. 4); 1, 2, 4, and 8 mg/kg once of anti-BCMA-AB1-Compound 3 or iso-3 in Experiment III (FIG. 5); and 4 mg/kg biw×4 of anti-BCMA-AB2 or 2 and 4 mg/kg biw×4 of anti-BCMA-AB2-Compound 3 in Experiment IV (FIG. 6).
# Raw data of tumor measurements were analyzed in Excel. Tumor growth curves were plotted using GraphPad Prism 8.0 software and values were presented as mean t SEM.
# [7] = test system: OPM2 tumor xenograft; assay: In vivo efficacy, OPM2 tumor xenograft in SCID beige mice; design: species or system CB17 SCID beige mice; settings: Experiment II, FIG. 4
# Description: as §4, §5, §6, §7
# Mice were euthanized when tumor size reached 2000 mm^3. […]
# Raw data of tumor measurements were analyzed in Excel. […]
# [8] = test system: K562 (BCMA −) cells; assay: In vitro cell viability assay (Cell Titer-Glo 2.0), Example B1; type: cell-based, human; settings: Table 4; 5-day assays; AB1 clone; read-out: EC50 Values, Cell Line K562
# Description: as §1, §2, §3
# [9] = test system: BCMA-negative K562; assay: In vitro cytotoxicity assay (CellTiter-Glo 2.0, 384-well), Example B2; type: cell-based, human; settings: 5-day assays, FIG. 8
# Description: (§8) The in vitro efficacies of ADCs anti-BCMA-Compound 50, anti-BCMA-Compound 51, anti-BCMA-Compound 52, and anti-BCMA-Compound 53, were compared to anti-BCMA-Compound 3. Anti-BCMA-AB1 clone was conjugated with compounds 50, 51, 52, 53 or 3 and the ADCs were evaluated using the following human cancer cell lines: BCMA-negative K562 and BCMA-positive NCI-H929, purchased from the American Type Culture Collection (ATCC; Manassas, VA).
# (§9) Cell Culture Method: The cell lines were cultured in RPMI-1640 medium (Catalog #10-041-CV: Corning) supplemented with 10-20% fetal bovine serum (FBS; Catalog #MT35011CV; Corning) and 1× penicillin-streptomycin (Catalog #30-002-Cl, Corning) and maintained at 37° C. in a 5% C02 humidified environment. Viable cell counts were made by Trypan blue exclusion using a Countess or Countess II automated cell counter.
# (§10) The in vitro assays were performed as follows: All cells were harvested by removal of a portion of the cell culture suspension followed by centrifugation at 300 g for 5 minutes, followed by resuspension in cell culture medium (described above in Cell Culture method), viable cell count (as described above in Cell Culture method), and then seeded into 384-well white wall clear bottom plates (Catalog #3765, Corning) at a density of 2,500 cells/well in growth media. Plates were maintained at 37° C. The outer wells of plates contained medium only and were used for background subtraction for the cell viability assay. Working solutions of test articles were prepared at 2× final concentrations with 5-fold serial dilutions in complete growth medium. Cell treatment was performed in either technical triplicates or duplicates and maintained at 37° C. for 120-hour assay. After treatment, cell viability was determined by CellTiter-Glo 2.0 assay (Catalog #G9243; Promega; Madison, WI, USA) based on the manufacturer's instructions. CellTiter Glo reagent reacts with ATP in metabolically active cells to give a luminescent readout that is directly proportional to the number of viable cells. Briefly, plates were removed from the incubator and equilibrated to room temperature before addition of CellTiter Glo reagent. Luminescence was measured using a Tecan Spark microplate reader (Tecan; Mannedorf, Switzerland).
# (§11) Data Analysis: For Cytotoxicity assays, raw luminescence data was background subtracted with average luminescence from the outer wells containing medium only and normalized to untreated controls using Excel (Microsoft; Albuquerque, NM). Dose-response relationships and EC50 values were determined based on non-linear regression analysis of normalized data fit to a four-parameter logistic equation using GraphPad Prism 8.0.
# [10] = test system: BCMA-positive NCI-H929; assay: as above; type: cell-based, human; settings: 5-day assays, FIG. 8
# Description: as §8, §9, §10, §11
molecule,measurement,setting,value
"anti-BCMA-AB1-Compound 3 (antibody, human IgG1, V domains shown, drug-linker Compound 3 on antibody cysteine thiols (C-lock conjugation; positions not stated)) VH: EVQLVESGGGLVKPGGSLRLSCAASGFTSSTAWMSWVRQAPGKGLEWVGRIKSKSDGGTTDYAAPVKGRFTISRDDSKNTLFLQMNSLKTEDTAVYYCAKGGGTYGYWGQGTTVTVSS VL: QSVLTQPASVSGSPGQSVTISCTGTSSAHGGHYYVSWYQQHPGKAPKLMIYDVSNRPSGVSNRFSGSKSGNTASLTISGLQAEDEADYYCGSYTSSGSYVFGTGTKLTVL","EC50 of cell viability (Cell Titer-Glo), MM.1R (BCMA+) cells, 4-day assay",[1],10 nM
same,"EC50 of cell viability (Cell Titer-Glo), NCI-H929 (BCMA+) cells, 4-day assay",[1],2.21 nM
same,"EC50 of cell viability (CellTiter-Glo 2.0), NCI-H929 (BCMA-positive) cells, 120-hour assay",[2],0.368 nM
same,"EC50 of cell viability (Cell Titer-Glo), MM.1R (BCMA+) cells, 5-day assay",[3],2.28 nM
same,"EC50 of cell viability (Cell Titer-Glo), NCI-H929 (BCMA+) cells, 5-day assay",[3],0.699 nM
BCMA-AB1-8 (conjugate) VH: EVQLVESGGGLVKPGGSLRLSCAASGFTSSTAWMSWVRQAPGKGLEWVGRIKSKSDGGTTDYAAPVKGRFTISRDDSKNTLFLQMNSLKTEDTAVYYCAKGGGTYGYWGQGTTVTVSS VL: QSVLTQPASVSGSPGQSVTISCTGTSSAHGGHYYVSWYQQHPGKAPKLMIYDVSNRPSGVSNRFSGSKSGNTASLTISGLQAEDEADYYCGSYTSSGSYVFGTGTKLTVL,cell killing of NCI-H929,[4],"comparable activity to the Gly2 peptide linker ADC, anti-BCMA-AB1-7"
BCMA-AB1-3: Compound 3 conjugated with anti-BCMA antibody clone BCA7-2C5 (AB1) (conjugate) VH: EVQLVESGGGLVKPGGSLRLSCAASGFTSSTAWMSWVRQAPGKGLEWVGRIKSKSDGGTTDYAAPVKGRFTISRDDSKNTLFLQMNSLKTEDTAVYYCAKGGGTYGYWGQGTTVTVSS VL: QSVLTQPASVSGSPGQSVTISCTGTSSAHGGHYYVSWYQQHPGKAPKLMIYDVSNRPSGVSNRFSGSKSGNTASLTISGLQAEDEADYYCGSYTSSGSYVFGTGTKLTVL,"relative potency, comparison of Table 5 and Table 6",[5],most potent
same,tumor regression / elimination,"[6]; Experiment I, FIG. 3, all regimens",induced dramatic and prolonged tumor regressions and eliminated all tumors in about two weeks after initial treatments
same,tumor growth,"[6]; Experiment I, FIG. 3, 8 mg/kg once, 4 mg/kg Q1W×2, 2 mg/kg biw×4, start ~400 mm^3",significantly inhibited tumor growth
same,tumor regression / elimination,"[6]; Experiment III, FIG. 5, high doses",induced dramatic and prolonged tumor regressions and eliminated all tumors in about two weeks after initial treatments
same,tumor growth,"[6]; Experiment III, FIG. 5, 1, 2, 4, and 8 mg/kg once",significantly inhibited tumor growth in a dose-dependent manner
same,tumor regression / elimination,[7]; high-dose regimen,induced dramatic and prolonged tumor regressions and eliminated all tumors in about two weeks after initial treatments
same,tumor growth,"[7]; i.p., 2 mg/kg biw×4 and 0.67 mg/kg biw×4",significantly and dose-dependently inhibited tumor growth
same,EC50,[8],> 100 nM
same,activity against K562 cells,[9],did not show activity
same,effect on NCI-H929 cell viability,[10],dose-dependently reduced
BCMA-AB1-2: Compound 2 conjugated with anti-BCMA antibody clone BCA7-2C5 (AB1); DAR 3.4 (conjugate) VH: EVQLVESGGGLVKPGGSLRLSCAASGFTSSTAWMSWVRQAPGKGLEWVGRIKSKSDGGTTDYAAPVKGRFTISRDDSKNTLFLQMNSLKTEDTAVYYCAKGGGTYGYWGQGTTVTVSS VL: QSVLTQPASVSGSPGQSVTISCTGTSSAHGGHYYVSWYQQHPGKAPKLMIYDVSNRPSGVSNRFSGSKSGNTASLTISGLQAEDEADYYCGSYTSSGSYVFGTGTKLTVL,EC50,[8],> 100 nM
BCMA-AB1-1: Compound 1 conjugated with anti-BCMA antibody clone BCA7-2C5 (AB1); DAR 3.8 (conjugate) VH: EVQLVESGGGLVKPGGSLRLSCAASGFTSSTAWMSWVRQAPGKGLEWVGRIKSKSDGGTTDYAAPVKGRFTISRDDSKNTLFLQMNSLKTEDTAVYYCAKGGGTYGYWGQGTTVTVSS VL: QSVLTQPASVSGSPGQSVTISCTGTSSAHGGHYYVSWYQQHPGKAPKLMIYDVSNRPSGVSNRFSGSKSGNTASLTISGLQAEDEADYYCGSYTSSGSYVFGTGTKLTVL,EC50,[8],> 100 nM
